The values that follow come from US20200277360A1 (UNIVERSITY OF MANCHESTER, published 2020).

The target in data set [1] is T1, C3b (human, UniProt P01024 23-667; P01024 749-1663).
T1 construct: also called purified C3b
As to the kind of experiment: Bio-Layer Interferometry.

Data set [2] concerns the target C3b.

T1 sequence (P01024 23-667 limits assumed, chain 1 of 2): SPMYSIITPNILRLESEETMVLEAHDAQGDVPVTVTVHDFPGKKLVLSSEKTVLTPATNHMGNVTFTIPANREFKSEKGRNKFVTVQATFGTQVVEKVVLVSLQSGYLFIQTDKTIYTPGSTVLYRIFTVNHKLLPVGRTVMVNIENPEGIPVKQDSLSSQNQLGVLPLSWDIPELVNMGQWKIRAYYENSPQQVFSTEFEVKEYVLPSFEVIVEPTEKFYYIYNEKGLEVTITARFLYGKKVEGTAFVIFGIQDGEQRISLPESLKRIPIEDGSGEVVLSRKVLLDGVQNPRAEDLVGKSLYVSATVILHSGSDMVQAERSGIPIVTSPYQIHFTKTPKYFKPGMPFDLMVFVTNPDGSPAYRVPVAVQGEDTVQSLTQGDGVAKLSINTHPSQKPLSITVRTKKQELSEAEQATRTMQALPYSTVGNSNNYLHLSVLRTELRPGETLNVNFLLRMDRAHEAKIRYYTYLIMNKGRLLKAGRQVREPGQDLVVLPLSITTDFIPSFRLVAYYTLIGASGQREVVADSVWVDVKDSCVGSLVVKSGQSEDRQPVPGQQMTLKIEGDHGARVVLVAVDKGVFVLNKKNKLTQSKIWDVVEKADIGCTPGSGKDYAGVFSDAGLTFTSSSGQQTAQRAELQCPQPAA
T1 sequence (P01024 749-1663 limits assumed, chain 2 of 2): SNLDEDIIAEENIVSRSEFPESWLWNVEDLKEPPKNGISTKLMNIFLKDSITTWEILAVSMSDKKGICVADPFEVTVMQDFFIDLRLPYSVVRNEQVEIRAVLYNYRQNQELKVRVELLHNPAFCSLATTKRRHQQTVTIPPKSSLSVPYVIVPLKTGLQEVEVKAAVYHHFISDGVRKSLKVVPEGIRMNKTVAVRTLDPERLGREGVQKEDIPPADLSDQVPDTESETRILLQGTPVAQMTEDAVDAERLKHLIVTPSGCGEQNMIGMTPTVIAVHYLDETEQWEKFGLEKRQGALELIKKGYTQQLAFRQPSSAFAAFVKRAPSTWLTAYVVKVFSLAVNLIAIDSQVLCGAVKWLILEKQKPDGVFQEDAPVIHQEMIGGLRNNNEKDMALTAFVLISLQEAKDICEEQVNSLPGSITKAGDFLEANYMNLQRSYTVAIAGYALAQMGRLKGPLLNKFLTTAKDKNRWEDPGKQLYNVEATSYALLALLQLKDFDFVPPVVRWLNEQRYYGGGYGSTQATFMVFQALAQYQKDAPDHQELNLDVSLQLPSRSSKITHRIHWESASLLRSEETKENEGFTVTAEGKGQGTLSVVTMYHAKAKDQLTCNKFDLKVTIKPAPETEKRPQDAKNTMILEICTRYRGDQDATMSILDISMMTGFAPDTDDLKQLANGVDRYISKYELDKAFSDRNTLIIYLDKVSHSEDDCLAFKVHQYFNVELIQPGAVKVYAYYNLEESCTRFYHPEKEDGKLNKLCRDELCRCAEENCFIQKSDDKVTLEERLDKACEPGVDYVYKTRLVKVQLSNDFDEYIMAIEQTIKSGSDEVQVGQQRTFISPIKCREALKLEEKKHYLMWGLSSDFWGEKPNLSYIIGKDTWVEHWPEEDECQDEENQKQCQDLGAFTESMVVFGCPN

B1: Complement Factor H (other)
chain: EDCNELPPRRNTEILTGSWSDQTYPEGTQAIYKCRPGYRSLGNVIMVCRKGEWVALNPLRKCQKRPCGHPGDTPFGTFTLTGGNVFEYGVKAVYTCNEGYQLLGEINYRECDTDGWTNDIPICEVVKCLPVTAPENGKIVSSAMEPDREYHFGQAVRFVCNSGYKIEGDEEMHCSDDGFWSKEKPKCVEISCKSPDVINGSPISQKIIYKENERFQYKCNMGYEYSERGDAVCTESGWRPLPSCEEKSCDNPYIPNGDYSPLRIKHRTGDEITYQCRNGFYPATRGNTAKCTSTGWIPAPRCTLKPCDYPDIKHGGLYHENMRRPYFPVAVGKYYSYYCDEHFETPSGSYWDHIHCTQDGWSPAVPCLRKCYFPYLENGYNQNYGRKFVQGKSIDVACHPGYALPKAQTTVTCMENGWSPTPRCIRVKTCSKSSIDIENGFISESQYTYALKEKAKYQCKLGYVTADGETSGSITCGKDGWSAQPTCIKSCDIPVFMNARTKNDFTWFKLNDTLDYECHDGYESNTGSTTGSIVCGYNGWSDLPICYERECELPKIDVHLVPDRKKDQYKVGEVLKFSCKPGFTIVGPNSVQCYHFGLSPDLPICKEQVQSCGPPPELLNGNVKEKTKEEYGHSEVVEYYCNPRFLMKGPNKIQCVDGEWTTLPVCIVEESTCGDIPELEHGWAQLSSPPYYYGDSVEFNCSESFTMIGHRSITCIHGVWTQLPQCVAIDKLKKCKSSNLIILEEHLKNKKEFDHNSNIRYRCRGKEGWIHTVCINGRWDPEVNCSMAQIQLCPPPPQIPNSHNMTTTLNYRDGEKVSVLCQENYLIQEGEEITCKDGRWQSIPLCVEKIPCSQPPQIEHGTINSSRSSQESYAHGTKLSYTCEGGFRISEENETTCYMGKWSSPPQCEGLPCKSPPEISHGVVAHMSDSYQYGEEVTYKCFEGFGIDGPAIAKCLGEKWSHPPSCIKTDCLSLPSFENAIPMGEKKDVYKAGEQVTYTCATYYKMDGASNVTCINSRWTGRPTCRDTSCVNPPTVQNAYIVSRQMSKYPSGERVRYQCRSPYEMFGDEEVMCLNGNWTEPPQCKDSTGKCGPPPPIDNGDITSFPLSVYAPASSVEYQCQNLYQLEGNKRITCRNGQWSEPPKCLHPCVISREIMENYNIALRWTAKQKLYSRTGESVEFVCKRGYRLSSRSHTLRTTCWDGKLEYPTCAKR
notes: Positive control in the BLI assay; also called FH
Usually Kd stands for the constant that tells how readily two partners part at equilibrium. B1 had a Kd in data set [1] of 583 nM.

B2: Complement Factor H isoform FHL-1 (other)
chain: EDCNELPPRRNTEILTGSWSDQTYPEGTQAIYKCRPGYRSLGNVIMVCRKGEWVALNPLRKCQKRPCGHPGDTPFGTFTLTGGNVFEYGVKAVYTCNEGYQLLGEINYRECDTDGWTNDIPICEVVKCLPVTAPENGKIVSSAMEPDREYHFGQAVRFVCNSGYKIEGDEEMHCSDDGFWSKEKPKCVEISCKSPDVINGSPISQKIIYKENERFQYKCNMGYEYSERGDAVCTESGWRPLPSCEEKSCDNPYIPNGDYSPLRIKHRTGDEITYQCRNGFYPATRGNTAKCTSTGWIPAPRCTLKPCDYPDIKHGGLYHENMRRPYFPVAVGKYYSYYCDEHFETPSGSYWDHIHCTQDGWSPAVPCLRKCYFPYLENGYNQNYGRKFVQGKSIDVACHPGYALPKAQTTVTCMENGWSPTPRCIRVSFTL
notes: Positive control in the BLI assay; also called factor H-like protein 1
With B2, binding in data set [1] was put at a Kd of 1170 nM. This Kd is about 2-fold higher than that of the molecule before.

B3: glycosylated chimeric FH-FI polypeptide (other)
chain: GSSGEDCNELPPRRNTEILTGSWSDQTYPEGTQAIYKCRPGYRSLGNIIMVCRKGEWVALNPLRKCQKRPCGHPGDTPFGTFTLTGGNVFEYGVKAVYTCNEGYQLLGEINYRECDTDGWTNDIPICEVVKCLPVTAPENGKIVSSAMEPDREYHFGQAVRFVCNSGYKIEGDEEMHCSDDGFWSKEKPKCVEISCKSPDVINGSPISQKIIYKENERFQYKCNMGYEYSERGDAVCTESGWRPLPSCEEGGGGSRGGGGSGGGGSIVGGKRAQLGDLPWQVAIKDASGITCGGIYIGGCWILTAAHCLRASKTHRYQIWTTVVDWIHPDLKRIVIEYVDRIIFHENYNAGTYQNDIALIEMKKDGNKKDCELPRSIPAAVPWSPYLFQPNDTCIVSGWGREKDNERVFSLQWGEVKLISNCSKFYGNRFYEKEMECAGTYDGSIDACKGDSGGPLVCMDANNVTYVWGVVSWGENCGKPEFPGVYTKVANYFDWISYHVGRPFISQYNV
modifications: N-glycans on the Complement Factor I proteolytic domain (glycosylated form)
notes: It consists of the Factor H co-factor region (CCPs 1-4), a G4S-R-(G4S)2 linker and the Factor I proteolytic domain; also called Chimera
B3 had a Kd in data set [1] of 5.21 nM. Against the preceding molecule, the Kd is about 220-fold lower.

B4: deglycosylated chimeric FH-FI polypeptide (other)
chain: GSSGEDCNELPPRRNTEILTGSWSDQTYPEGTQAIYKCRPGYRSLGNIIMVCRKGEWVALNPLRKCQKRPCGHPGDTPFGTFTLTGGNVFEYGVKAVYTCNEGYQLLGEINYRECDTDGWTNDIPICEVVKCLPVTAPENGKIVSSAMEPDREYHFGQAVRFVCNSGYKIEGDEEMHCSDDGFWSKEKPKCVEISCKSPDVINGSPISQKIIYKENERFQYKCNMGYEYSERGDAVCTESGWRPLPSCEEGGGGSRGGGGSGGGGSIVGGKRAQLGDLPWQVAIKDASGITCGGIYIGGCWILTAAHCLRASKTHRYQIWTTVVDWIHPDLKRIVIEYVDRIIFHENYNAGTYQNDIALIEMKKDGNKKDCELPRSIPAAVPWSPYLFQPNDTCIVSGWGREKDNERVFSLQWGEVKLISNCSKFYGNRFYEKEMECAGTYDGSIDACKGDSGGPLVCMDANNVTYVWGVVSWGENCGKPEFPGVYTKVANYFDWISYHVGRPFISQYNV
modifications: N-glycans removed with PNGase F under non-denaturing conditions
notes: It is not the N464Q/N494Q/N536Q mutant; also called dFH-FI; dChimera
Consider B4, for which the Kd in data set [1] is 47.6 nM. This Kd lies about 9.1-fold higher than the previous one.

B5: Complement Factor I (protein)
chain 1: KVTYTSQEDLVEKKCLAKKYTHLSCDKVFCQPWQRCIEGTCVCKLPYQCPKNGTAVCATNRRSFPTYCQQKSLECLHPGTKFLNNGTCTAEGKFSVSLKHGNTDSEGIVEVKLVDQDKTMFICKSSWSMREANVACLDLGFQQGADTQRRFKLSDLSINSTECLHVHCRGLETSLAECTFTKRRTMGYQDFADVVCYTQKADSPMDDFFQCVNGKYISQMKACDGINDCGDQSDELCCKACQGKGFHCKSGVCIPSQYQCNGEVDCITGEDEVGCAGFASVTQEETEILTADMDAERRRIKSLLPKLSCGVKNRMHI
chain 2: IVGGKRAQLGDLPWQVAIKDASGITCGGIYIGGCWILTAAHCLRASKTHRYQIWTTVVDWIHPDLKRIVIEYVDRIIFHENYNAGTYQNDIALIEMKKDGNKKDCELPRSIPACVPWSPYLFQPNDTCIVSGWGREKDNERVFSLQWGEVKLISNCSKFYGNRFYEKEMECAGTYDGSIDACKGDSGGPLVCMDANNVTYVWGVVSWGENCGKPEFPGVYTKVANYFDWISYHVGRPFISQYNV
As for B5, in data set [2], the “C3b alpha-chain breakdown (Instant Blue stained gel), with FHL-1 as co-factor” value was “It was possible to observe the breakdown of the α-chain of C3b in the presence of FHL-1 and FI”.
